One substance from paper PMC12225687 can be followed below.

Targets include 1G4 TCR (human); 1G4-c50 TCR (human); 1G4-c53c50 TCR (human).
Experiment in all cases: flow cytometry on cells; PE-labelled pMHC multimer (HLA-A*02:01 with the … peptide) stained on Jurkat J1601 cells (human CD8α/β, TCRα/β CRISPR-KO) electroporated with TCR RNA, after overnight incubation; read-out % multimer+CD8+ cells, averages of two independent replicates

On to “HLA-A*02:01 with the NY-ESO-1 157-165 peptide …, PE-labelled multimer (from UniProt P61769 21-119) (peptide-MHC)”, for which the % of multimer+CD8+ Jurkat cells with 1G4 TCR (human) turned out to be 90.9%; with 1G4-c50 TCR (human), 99.6%; with 1G4-c53c50 TCR (human), 99.1%.
